In patent JP2014043405A (dated 2014):

Key:
[1] = target: T1, ヒトFcγRIIa (R) (human, UniProt P12318 34-217); assay: SPR, KD
T1 construct: extracellular domain; N-glycans trimmed with Endo F1/F2/F3 for the crystals; also called FcγRIIa R型
T1 sequence (looked up): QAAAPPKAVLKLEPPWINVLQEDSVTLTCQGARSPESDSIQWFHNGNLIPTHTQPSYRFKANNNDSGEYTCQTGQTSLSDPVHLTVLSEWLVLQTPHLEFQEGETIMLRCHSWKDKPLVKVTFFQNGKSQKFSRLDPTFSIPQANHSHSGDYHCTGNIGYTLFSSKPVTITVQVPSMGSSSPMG

[2] = target: ヒトFcγRIa (human, UniProt P12314 16-292); assay: SPR, KD
Chain of ヒトFcγRIa (P12314 16-292): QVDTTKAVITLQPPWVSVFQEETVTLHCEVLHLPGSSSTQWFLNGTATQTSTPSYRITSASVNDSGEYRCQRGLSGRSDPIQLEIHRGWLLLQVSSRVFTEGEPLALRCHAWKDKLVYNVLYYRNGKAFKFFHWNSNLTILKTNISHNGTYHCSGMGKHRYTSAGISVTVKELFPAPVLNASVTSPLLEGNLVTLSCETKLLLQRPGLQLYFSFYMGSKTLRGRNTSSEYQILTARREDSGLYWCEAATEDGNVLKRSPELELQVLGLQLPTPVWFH

[3] = target: T2, ヒトFcγRIIa (H) (human, UniProt P12318 34-217); assay: SPR, KD
T2 construct: extracellular domain; also called FcγRIIa H型
T2 sequence (looked up): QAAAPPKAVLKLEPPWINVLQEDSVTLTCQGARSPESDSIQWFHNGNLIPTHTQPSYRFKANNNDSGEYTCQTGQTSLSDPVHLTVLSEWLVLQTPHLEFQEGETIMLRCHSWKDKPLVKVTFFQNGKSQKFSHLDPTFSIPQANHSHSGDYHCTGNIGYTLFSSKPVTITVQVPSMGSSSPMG

[4] = target: T1, ヒトFcγRIIa (R); assay: SPR, KD; reference IL6R-B3/IL6R-L
[5] = target: T3, ヒトFcγRIIb (human, UniProt P31994 43-217); assay: SPR, KD; reference IL6R-B3/IL6R-L
T3 construct: extracellular domain; for the crystals it was expressed with kifunensine and its N-glycans trimmed with Endo F1; also called FcγRIIb細胞外領域
T3 sequence (looked up): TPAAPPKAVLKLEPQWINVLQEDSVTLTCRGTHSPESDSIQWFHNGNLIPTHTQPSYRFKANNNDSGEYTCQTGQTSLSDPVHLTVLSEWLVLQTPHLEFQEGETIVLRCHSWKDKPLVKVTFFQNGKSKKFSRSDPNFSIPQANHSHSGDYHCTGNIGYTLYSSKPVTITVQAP

[6] = target: T4, マウスFcRn (mouse, UniProt Q61559 22-297, limits assumed); assay: SPR, Biacore T100, pH 7.0, 25C
T4 construct: also called mouse FcRn
T4 sequence (looked up): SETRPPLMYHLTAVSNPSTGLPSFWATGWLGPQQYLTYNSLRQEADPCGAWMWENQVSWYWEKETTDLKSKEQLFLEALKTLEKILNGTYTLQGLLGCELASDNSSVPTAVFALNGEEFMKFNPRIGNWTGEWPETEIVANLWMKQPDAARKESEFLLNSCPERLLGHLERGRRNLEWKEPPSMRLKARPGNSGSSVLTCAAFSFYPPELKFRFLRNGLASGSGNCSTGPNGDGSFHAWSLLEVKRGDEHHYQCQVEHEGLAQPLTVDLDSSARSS

[7] = target: T4, マウスFcRn; assay: SPR, Biacore T100; antibody captured on protein L, FcRn as analyte, pH 7.0, 25C; reference Fv4-IgG1

B1: IL6R-B3/IL6R-L (antibody, human IgG1)
heavy: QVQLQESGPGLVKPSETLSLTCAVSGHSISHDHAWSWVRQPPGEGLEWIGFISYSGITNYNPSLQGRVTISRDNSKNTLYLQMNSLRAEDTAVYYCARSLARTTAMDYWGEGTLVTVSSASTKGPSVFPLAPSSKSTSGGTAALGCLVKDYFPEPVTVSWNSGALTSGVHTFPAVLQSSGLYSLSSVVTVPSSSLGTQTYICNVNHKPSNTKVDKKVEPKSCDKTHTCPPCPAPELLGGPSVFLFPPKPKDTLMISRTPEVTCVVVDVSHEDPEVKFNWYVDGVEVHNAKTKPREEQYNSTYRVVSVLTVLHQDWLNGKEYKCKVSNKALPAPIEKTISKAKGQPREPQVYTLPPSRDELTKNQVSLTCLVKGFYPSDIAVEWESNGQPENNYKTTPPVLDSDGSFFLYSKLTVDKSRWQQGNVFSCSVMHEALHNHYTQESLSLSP
light: DIQMTQSPSSLSASVGDRVTITCRASQDISSYLNWYQQKPGKAPKLLIYYTSRLHSGVPSRFSGSGSGTDFTFTISSLQPEDIATYYCQQGNTLPYTFGQGTKVEIK
B1: binds [1]; binds [2]; binds [3].

B2: IL6R-BP230/IL6R-L (antibody)
chain 1: QVQLQESGPGLVKPSETLSLTCAVSGHSISHDHAWSWVRQPPGEGLEWIGFISYSGITNYNPSLQGRVTISRDNSKNTLYLQMNSLRAEDTAVYYCARSLARTTAMDYWGEGTLVTVSSASTKGPSVFPLAPSSKSTSGGTAALGCLVKDYFPEPVTVSWNSGALTSGVHTFPAVLQSSGLYSLSSVVTVPSSSLGTQTYICNVNHKPSNTKVDKKVEPKSCDKTHTCPPCPAPDLLGDDSVFLFPPKPKDTLMISRTPEVTCVVVDVSDEDGEVKFNWYVDGVEVHNAKTKPREEQDNSTYRVVSVLTVLHQDWLNGKEYKCKVSNKALPRPIEKTISKAKGQPREPQVYTLPPSRDELTKNQVSLTCLVKGFYPSDIAVEWESNGQPENNYKTTPPVLDSDGSFFLYSKLTVDKSRWQQGNVFSCSVMHEALHNHYTQESLSLSP
chain 2: not shown
For B2, the “fold enhancement of binding against IL6R-B3/IL6R-L” value [4] was about 1.9 fold, the “fold enhancement of binding against IL6R-B3/IL6R-L” value [5] was about 150 fold and the “fold improvement of binding activity against IL6R-B3” value [5] was 148 fold.

B3: Fv4-hF1 (antibody, human IgG1, kappa)
heavy: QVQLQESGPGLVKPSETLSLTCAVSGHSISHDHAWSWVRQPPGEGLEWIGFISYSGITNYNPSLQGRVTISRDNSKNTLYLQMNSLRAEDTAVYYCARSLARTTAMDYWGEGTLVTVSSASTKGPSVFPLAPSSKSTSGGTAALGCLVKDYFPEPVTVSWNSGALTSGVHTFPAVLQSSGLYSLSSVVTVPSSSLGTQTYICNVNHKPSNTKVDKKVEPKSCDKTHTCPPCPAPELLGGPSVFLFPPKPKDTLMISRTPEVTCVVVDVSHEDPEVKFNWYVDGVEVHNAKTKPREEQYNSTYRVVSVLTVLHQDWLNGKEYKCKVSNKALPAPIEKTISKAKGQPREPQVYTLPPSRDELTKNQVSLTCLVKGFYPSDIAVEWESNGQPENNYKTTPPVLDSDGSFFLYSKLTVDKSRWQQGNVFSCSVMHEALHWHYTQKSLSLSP
light: DIQMTQSPSSLSASVGDSVTITCQASTDISSHLNWYQQKPGKAPELLIYYGSHLLSGVPSRFSGSGSGTDFTFTISSLEAEDAATYYCGQGNRLPYTFGQGTKVEIERTVAAPSVFIFPPSDEQLKSGTASVVCLLNNFYPREAKVQWKVDNALQSGNSQESVTEQDSKDSTYSLSSTLTLSKADYEKHKVYACEVTHQGLSSPVTKSFNRGEC
With B3 the Kd [6] was 150 nM and the “fold improvement of affinity against IgG1” value [7] was about 24.7 fold.
